According to patent US8741844B2, “Use of mutated antithrombins for treating or preventing coagulation disorders” (Universite Paris-Sud XI, priority 2007, dated 2014):

Legend:
[1] = Heparin affinity column elution with NaCl gradient; format: binding
Description: Conditioned media are thawed, pooled, salt concentration adjusted to 0.4 M NaCl and then applied on an heparin immobilized column (Hitrap Heparin 5 ml or Heparin-sepharose CL6B 50 ml, GE Biological) equilibrated with 10 mM Tris, or with 20 mM phosphate buffer, 0.4 M NaCl and 0.1 mM EDTA, pH 7.4. The bound proteins are eluted in the same buffer with a gradient from 0.4 M to 2 M NaCl. The fractions eluted from 0.8 M NaCl and more contained only wild type antithrombin or mutated antithrombins with high heparin affinity. […] The collected fractions are pooled and the salt concentration is decreased either by over night dialysis against 10 mM Tris, or 20 mM phosphate, and 0.1 M NaCl, pH 7.4 at 4° C. or applied on an HiPrep 26/10 desalting column equilibrated with 10 mM Tris, or 20 mM phosphate, and 0.1 M NaCl, pH 7.4. The antithrombin is then concentrated by ion exchange chromatography using a “Resource Q” 1 ml column (GE, Biological) equilibrated with 10 mM Tris, or 20 mM phosphate, and 0.1 M NaCl, pH 7.4 and eluted in the same buffer with a NaCl gradient from […] to 0.5 M or 20 mM to 0.5 M. The antithrombin concentration in each elution fraction is estimated by absorbance at 280 nm with an absorption coefficient ε=0.65 g^−1·l·cm^−1 and the integrity of purified wild type antithrombin or mutated antithrombins is tested by western blotting using the same couple of antibodies as described before, and electrophoresis on 10% acrylamide/bisacrylamide gel in native and denaturing conditions followed by coomassie brilliant blue R-250 staining (FIG. 4). Then, the antithrombin preparation is aliquoted and stored at −80° C. before use for functional assay. The same procedure is used to purify plasma antithrombin (used as internal reference) from human plasma.

[2] = system: pentasaccharide bound plasma antithrombin (plasma anti-factor Xa activity), HUVEC surface; assay: Rotachrom heparin anti factor Xa assay after pre-incubation of pentasaccharide containing plasma-mutated antithrombin mixture on HUVEC surface; format: cell-based, human; conditions: for virtual pentasaccharide concentration (residual anti-factor Xa activity): 3 μg/mL pentasaccharide
Description: Finally to evaluate effect of mutated antithrombin on anti-factor Xa activity in conditions as close as possible to in vivo conditions, Rotachrom® heparin method is used to test anti-factor Xa activity in plasma pre-incubated with mutated antithrombin (0-0.6 g/L, preferably 0.15-0.6 g/L in kinetic buffer), during 30 min at 37° C. on human umbilical vein endothelial cells (HUVEC) in culture. Cells are inoculated at 20 000 cells/cm^2 in 96 well plate and grown to confluence for 24 hours in EGM-2 media (Clonetics, Cambrex). After two wash with phosphate buffer saline (Gibco, Invitrogen) cells are starved for 4 hours in EBM-2 media (Clonetics, Cambrex) and then washed again twice in phosphate buffer saline to prevent excess contamination with heparin present in the culture medium. HUVEC coated wells are then used for 30 min incubation of pentasaccharide containing plasma-mutated antithrombin mixture (125 μl/cm^2) before Rotachrom® heparin assay
To evaluate the role of blood-vessel endothelium, or more precisely, the role of glycosamino-glycans exposed on endothelial cell surface, on competition between natural antithrombin and mutated antithrombin for pentasaccharide binding, the same experiment as described above is done but with pre-incubation of pentasaccharide containing plasma-mutated antithrombin mixture on HUVEC surface (FIG. 8).

Row | Molecule | elution from heparin affinity column compared with wild type antithrombin [1] | virtual pentasaccharide concentration (residual anti-factor Xa activity) ([2]; ratio 1/1) [µg/mL] | virtual pentasaccharide concentration (residual anti-factor Xa activity) ([2]; ratio 2/1) [µg/mL] | virtual pentasaccharide concentration (residual anti-factor Xa activity) ([2]; ratio 4/1) [µg/mL] | effect on anti-factor Xa activity of pentasaccharide ([2]; over-dosing conditions)
1 | AT-N135Q-R393H: human antithrombin with substitution at 393 by Histidine and at 135 by Glutamine | higher ionic strength than wild type antithrombin | 1.66 | 0.91 | 0.26 | 
2 | AT-N135Q-Pro394: human antithrombin with Proline inserted between 393 and 394 and substitution at 135 by Glutamine (protein, listed as Homo sapiens) HGSPVDICTAKPRDIPMNPMCIYRSPEKKATEDEGSEQKIPEATNRRVWELSKANSRFATTFYQHLADSKNDNDNIFLSPLSISTAFAMTKLGACNDTLQQLMEVFKFDTISEKTSDQIHFFFAKLNCRLYRKAQKSSKLVSANRLFGDKSLTFNETYQDISELVYGAKLQPLDFKENAEQSRAAINKWVSNKTEGRITDVIPSEAINELTVLVLVNTIYFKGLWKSKFSPENTRKELFYKADGESCSASMMYQEGKFRYRRVAEGTQVLELPFKGDDITMVLILPKPEKSLAKVEKELTPEVLQEWLDELEEMMLVVHMPRFRIEDGFSLKEQLQDMGLVDLFSPEKSKLPGIVAEGRDDLYVSDAFHKAFLEVNEEGSEAAASTAVVIAGRPSLNPNRVTFKANRPFLVFIREVPLNTIIFMGRVANPCVK | higher ionic strength than wild type antithrombin | 1.69 | 0.94 | 0.27 | 
3 | AT-Pro394: human antithrombin with insertion of a Proline between positions 393 and 394 (protein, listed as Homo sapiens) HGSPVDICTAKPRDIPMNPMCIYRSPEKKATEDEGSEQKIPEATNRRVWELSKANSRFATTFYQHLADSKNDNDNIFLSPLSISTAFAMTKLGACNDTLQQLMEVFKFDTISEKTSDQIHFFFAKLNCRLYRKANKSSKLVSANRLFGDKSLTFNETYQDISELVYGAKLQPLDFKENAEQSRAAINKWVSNKTEGRITDVIPSEAINELTVLVLVNTIYFKGLWKSKFSPENTRKELFYKADGESCSASMMYQEGKFRYRRVAEGTQVLELPFKGDDITMVLILPKPEKSLAKVEKELTPEVLQEWLDELEEMMLVVHMPRFRIEDGFSLKEQLQDMGLVDLFSPEKSKLPGIVAEGRDDLYVSDAFHKAFLEVNEEGSEAAASTAVVIAGRPSLNPNRVTFKANRPFLVFIREVPLNTIIFMGRVANPCVK |  |  |  |  | decreases anti-factor Xa activity
4 | AT-N135Q-ΔR393: human antithrombin with deletion of position 393 and substitution at 135 by Glutamine (protein, listed as Homo sapiens) HGSPVDICTAKPRDIPMNPMCIYRSPEKKATEDEGSEQKIPEATNRRVWELSKANSRFATTFYQHLADSKNDNDNIFLSPLSISTAFAMTKLGACNDTLQQLMEVFKFDTISEKTSDQIHFFFAKLNCRLYRKAQKSSKLVSANRLFGDKSLTFNETYQDISELVYGAKLQPLDFKENAEQSRAAINKWVSNKTEGRITDVIPSEAINELTVLVLVNTIYFKGLWKSKFSPENTRKELFYKADGESCSASMMYQEGKFRYRRVAEGTQVLELPFKGDDITMVLILPKPEKSLAKVEKELTPEVLQEWLDELEEMMLVVHMPRFRIEDGFSLKEQLQDMGLVDLFSPEKSKLPGIVAEGRDDLYVSDAFHKAFLEVNEEGSEAAASTAVVIAGSLNPNRVTFKANRPFLVFIREVPLNTIIFMGRVANPCVK | higher ionic strength than wild type antithrombin |  |  |  | 
5 | AT-N135Q-ΔS394: human antithrombin with deletion of position 394 and substitution at 135 by Glutamine (protein, listed as Homo sapiens) HGSPVDICTAKPRDIPMNPMCIYRSPEKKATEDEGSEQKIPEATNRRVWELSKANSRFATTFYQHLADSKNDNDNIFLSPLSISTAFAMTKLGACNDTLQQLMEVFKFDTISEKTSDQIHFFFAKLNCRLYRKAQKSSKLVSANRLFGDKSLTFNETYQDISELVYGAKLQPLDFKENAEQSRAAINKWVSNKTEGRITDVIPSEAINELTVLVLVNTIYFKGLWKSKFSPENTRKELFYKADGESCSASMMYQEGKFRYRRVAEGTQVLELPFKGDDITMVLILPKPEKSLAKVEKELTPEVLQEWLDELEEMMLVVHMPRFRIEDGFSLKEQLQDMGLVDLFSPEKSKLPGIVAEGRDDLYVSDAFHKAFLEVNEEGSEAAASTAVVIAGRLNPNRVTFKANRPFLVFIREVPLNTIIFMGRVANPCVK | higher ionic strength than wild type antithrombin |  |  |  | 
6 | AT-N135Q-ΔR393-S394: human antithrombin with deletion of positions 393 and 394 and substitution at 135 by Glutamine (protein, listed as Homo sapiens) HGSPVDICTAKPRDIPMNPMCIYRSPEKKATEDEGSEQKIPEATNRRVWELSKANSRFATTFYQHLADSKNDNDNIFLSPLSISTAFAMTKLGACNDTLQQLMEVFKFDTISEKTSDQIHFFFAKLNCRLYRKAQKSSKLVSANRLFGDKSLTFNETYQDISELVYGAKLQPLDFKENAEQSRAAINKWVSNKTEGRITDVIPSEAINELTVLVLVNTIYFKGLWKSKFSPENTRKELFYKADGESCSASMMYQEGKFRYRRVAEGTQVLELPFKGDDITMVLILPKPEKSLAKVEKELTPEVLQEWLDELEEMMLVVHMPRFRIEDGFSLKEQLQDMGLVDLFSPEKSKLPGIVAEGRDDLYVSDAFHKAFLEVNEEGSEAAASTAVVIAGLNPNRVTFKANRPFLVFIREVPLNTIIFMGRVANPCVK | higher ionic strength than wild type antithrombin |  |  |  | 
